Laboratory results published in patent US20210332115A1 (Sanofi, published 2021).

Assays:
[1] = biological target: T1, Homo sapiens factor Bb protein (human, UniProt P00751 260-764); assay: BLI Octet, biotinylated antibody on SA biosensors
T1 construct: Bought from CompTech (A155); also called complement factor Bb; human factor Bb
Procedure: (§1) Briefly, biotinylated antibodies were loaded onto SA Biosensors equilibrated in PBS, 0.1% BSA, 0.02% Tween-20 (assay buffer). After a 60 second baseline in assay buffer, antibodies were loaded onto the probes for 180 seconds, followed by another 60 second baseline. Association to human (Comptech) or cynomolgus monkey factor Bb (purified in-house) was measured for 300 seconds, followed by a 300 second dissociation. Kinetic parameters were calculated by the Octet Analysis software using a 1:1 binding model.
To determine whether the modification of the Fc portion of the antibodies affected affinity and species cross-reactivity, VH4/VK6-IgG4v2 and VH6/VK7-IgG4v2 were tested alongside their parental antibodies, VH4/VK6 and VH6/VK7, respectively, for their ability to bind human and cynomolgus monkey factor Bb by BLI. VH4/VK6-IgG4v2 and VH6/VK7-IgG4v2 contain mutations in the Fc region that increase the affinity for an Fc receptor.

[2] = biological target: T1, Homo sapiens factor Bb protein; assay: SPR single cycle kinetics, antibody on Protein A chip, antigen analyte
Procedure: The ability of VH4/VK6 and VH6/VK7 to bind to zymogen factor B and factor Bb from both human and cynomolgus monkey was determined by surface plasmon resonance using a Biacore T200. Human factor B and factor Bb were purchased from Comptech and cynomolgus monkey factor B and factor Bb were purified in-house. Briefly, the monoclonal antibodies were captured on a Biacore Series S Protein A chip in HBSP+ (10 mM HEPES, 150 mM NaCl, 0.05% P20 pH 7.4) at a flow rate of 30 μL/min. A five-point concentration series of each analyte was tested for binding using single cycle kinetics with a contact time of 180 seconds per concentration followed by a 600 sec dissociation at 25° C. and a flow rate of […]. Both human and cynomolgus monkey factor B started at a concentration of 500 nM followed by 2-fold dilutions, while human and cynomolgus monkey factor Bb started at concentrations of 30 nM and 150 nM, respectively, followed by 2-fold dilutions. Data were analyzed using the Biacore evaluation software using a 1:1 binding model. […] Binding to human or cynomolgus monkey factor B was barely detectable and the small signal that was observed was dominated by non-specific binding.

[3] = biological target: T1, Homo sapiens factor Bb protein; assay: cell-based or functional assay
[4] = biological target: T1, Homo sapiens factor Bb protein; assay: SPR single cycle kinetics; ratio against VH0/Vκ0
Procedure: (§2) In order to assess the binding of all humanized variants, single cycle kinetic analysis was performed on supernatants from transfected cell cultures. […] All single cycle kinetic experiments were run at 25° C. with HBS-P+running buffer (pH 7. 4) (GE Healthcare, Little Chalfont, UK).
(§3) Antibodies were diluted in running buffer to a final concentration of 1 μg/ml, based on concentrations assessed by ELISA titer. At the start of each cycle, antibodies were loaded onto Fc2, Fc3 and Fc4 of the Protein A chip (GE Healthcare, Little Chalfont, UK). IgGs were captured at a flow rate of 10 μl/min to give an immobilization level (RL) of ˜63 RU, the theoretical value to obtain an Rmax of ˜50 RU. The surface was then allowed to stabilize. Single cycle kinetic data was obtained with factor Bb (CompTech, Tyler, USA) as the analyte at a flow rate of 30 μl/min to minimize any potential mass transport limitations. Multiple repeats with the reference chimeric antibody were performed to check the stability of the surface and analyte over the kinetic cycles. The signal from the reference channel Fc1 (no antibody) was subtracted from that of Fc2, Fc3 and Fc4 to correct for differences in non-specific binding to a reference surface. A four point, two-fold dilution range from 0. 78 nM to 6. 25 nM factor Bb without regeneration between each concentration was used. The association phase for the four injections of increasing concentrations of factor Bb was monitored for 200 seconds each time and a single dissociation phase was measured for 200 seconds following the last injection of factor Bb. Regeneration of the Protein A surface was conducted using two injections of 10 mM glycine-HCL pH 1. 5.
(§4) The sensorgrams and fitted data for the single cycle kinetics are shown in FIGS. 1A-1D and the kinetic parameters measured for the interaction of factor Bb with each antibody are shown in Table 7. The relative KD was calculated by dividing the KD of the VH0/Vκ0 reference antibody by that of the humanized variant assayed in the same experiment.

[5] = biological target: T1, Homo sapiens factor Bb protein; assay: BLI Octet, biotinylated antibody on SA biosensors; remark: listed apart in the source
Procedure: as §1

[6] = biological target: T1, Homo sapiens factor Bb protein; assay: SPR single cycle kinetics, IgG on Protein A chip, factor Bb analyte
Procedure: as §2, §3, §4

[7] = biological target: T1, Homo sapiens factor Bb protein; assay: as above; remark: listed apart in the source
Procedure: as §2, §3
Single cycle kinetics using cell culture supernatants were performed as described above.

[8] = biological target: T1, Homo sapiens factor Bb protein; assay: competition ELISA on coated factor Bb; competitor murine parental antibody
Procedure: Factor Bb was diluted in 1× PBS to 1.0 μg/ml and 100 μl/well was coated overnight at 4° C. on a 96-well ELISA plate. The following day the plates were blocked for two hours at room temperature with 1% casein/PBS before washing 2× with PBS pH 7.4. In a 96-well dilution plate a fixed concentration of murine parental antibody (0.5 μg/ml, final concentration) was added in equal volume to a four-fold titration series of test antibody (starting from 45 μg/ml to 0.01 μg/ml, final concentration) diluted in blocking buffer. After washing the plate 3× with PBS-T, 100 μl of chimeric/test antibody mix was added to the ELISA plate. After incubating at room temperature for one hour, the plate was washed 3× with PBS-T and 100 μl of anti-mouse IgG Fc-Specific HRP (Sigma, Dorset, UK) diluted 1:1000 in PBS-T was applied for one hour at room temperature to detect bound mouse antibody. For color development, the plate was washed 3× with PBS-T following which 100 μl of TMB substrate was added and incubated for approximately five minutes at room temperature. The reaction was stopped with 50 μl of 3.0 M hydrochloric acid and absorbance was read immediately using a DYNEX ® plate reader at 450 nm.
IC50 values were calculated for each variant and relative IC50 values were calculated by dividing the IC50 of the humanized variant by that of the chimeric antibody assayed on the same plate (Table 11).

T1 sequence (P00751 260-764 limits assumed): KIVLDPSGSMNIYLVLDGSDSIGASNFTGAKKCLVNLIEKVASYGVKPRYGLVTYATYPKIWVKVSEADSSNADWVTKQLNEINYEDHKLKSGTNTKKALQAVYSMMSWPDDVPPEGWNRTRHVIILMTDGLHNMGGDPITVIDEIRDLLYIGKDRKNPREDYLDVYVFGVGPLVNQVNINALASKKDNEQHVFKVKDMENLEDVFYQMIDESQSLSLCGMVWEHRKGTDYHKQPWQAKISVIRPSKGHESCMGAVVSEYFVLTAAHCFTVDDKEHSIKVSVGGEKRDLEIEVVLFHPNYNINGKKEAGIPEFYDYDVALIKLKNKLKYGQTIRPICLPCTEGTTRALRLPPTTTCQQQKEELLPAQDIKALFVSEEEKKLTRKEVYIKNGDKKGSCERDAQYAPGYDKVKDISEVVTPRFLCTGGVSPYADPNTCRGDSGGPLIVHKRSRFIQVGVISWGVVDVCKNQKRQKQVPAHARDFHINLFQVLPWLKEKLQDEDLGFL

Row | Kd [1] [nM] | Kd [2] [nM] | koff [2] [s⁻¹] | kon [2] [M⁻¹ s⁻¹] | AP Assay IC50 [3] [nM] | Relative KD [4] | Kd [5] [nM] | Kd [6] [nM] | koff [6] [s⁻¹] | kon [6] [M⁻¹ s⁻¹] | Kd [7] [nM] | koff [7] [s⁻¹] | kon [7] [M⁻¹ s⁻¹] | IC50 [8] [nM] | Binder
1 | 1.7 | 5.92 | 0.00138 | 232000 |  |  |  |  |  |  |  |  |  |  | VH6/Vκ7-IgG4v2 (antibody, also called VH6/VK7-IgG4v2; VH6/VK7-IgG4v2_HEK) heavy: not shown light: DIQMTQSPSTLSASVGDRVTITCKASQDVGTAVAWYQQKPGKAPKLLIYWASTRHTGVPDRFSGSGSGTDFTLTISSLQAEDFAVYFCHQHSSNPLTFGQGTKLEIKRTVAAPSVFIFPPSDEQLKSGTASVVCLLNNFYPREAKVQWKVDNALQSGNSQESVTEQDSKDSTYSLSSTLTLSKADYEKHKVYACEVTHQGLSSPVTKSFNRGEC
2 |  |  |  |  | 24 | 1 | 2 | 1.76 | 0.00103 | 585000 | 1.77 | 0.000949 | 535000 | 1.23 | VH0/Vκ0 (Chimeric) (antibody, V domains shown, also called chimeric antibody) VH: EVQLVESGGALVKPGGSLKLSCAASGFTFSNYAMSWVRQTPEKRLEWVATISNRGSYTYYPDSVKGRFTISRDNAKNTLYLQMSSLRSEDTALYYCARERPMDYWGQGTSVTVSS VL: DIVMTQSHKFMSTSVGDRVSITCKASQDVGTAVAWYQQKPGQSPKLLIYWASTRHTGVPDRFTGSGSGTDFTLTITNVQSEDLAVYFCHQHSSNPLTFGAGTKLELK
